This note sets out measurements from the DeepSol protein solubility set.

This series in a line: soluble on expression in E. coli; label from the status in PepcDB or PDB records.
For the sequence “MADSQTSSNRAGEFSIPPNTDFRAIFFANAAEQQHIKLFIGDSQEPAAYHKLTTRDGPREATLNSGNGKIRFEVSVNGKPSATDARLAPINGKKSDGSPFTVNFGIVVSEDGHDSDYNDGIVVLQWPIG”, the “soluble on expression in E. coli” value was “soluble”.

As for “MSKSALHAFIDRARADEDFRSKLAHLDPNQIIEFAGQHGFLFSDEIKGRFINRWSGVYFCPQAIEVGQLCPALVPDGYKNLIHYAQSTCSSSNLSEEERDFRSGIKY”, the “soluble on expression in E. coli” value was “not soluble”.

As for “SSFKKILGLSSKSHKKSKKMGLPPPYDESSPMETQPSAPLSNDFFGMEDMDLYDKDSLRYEKFRFMLKMTVRSNKPFRSYDDVTAAVSQWDNSYIGMVGKRPFYKIIALIGSSHLQATPAVLADLNQPEYYATLTGRCFLPHRLGLIPPMFNVSETFRKPFNIGIYKGTLDFTFTVSDDESNEKVPHVWEYMNPKYQSQIQKEGLKFGLILSKKATGTWVLDQLSPFK”, the “soluble on expression in E. coli” value is on record as “soluble”.

“PNISDIIEQYLKQVLNMSDQDIVEIKRSEIANKFRCVPSQINYVINTRFTLERGYIVESKRGGGGYIRIMKVKTKSEAQLIDQLLELIDHRISQSSAEDVIKRLMEEKVISEREAKMMLSVMDRSVLYIDLPERDELRARMLKAMLTSLKYKLEI”: the “soluble on expression in E. coli” value is given as “soluble”.

With “MHHHHHHSSGVDLGTENLYFQSNAMTNIQKRFYKGRVALNVLANNIENAKDIFEAAEGYVVVGVLSKDYPTVEEAVTAMKAYGKEIDDAVSIGLGAGDNRQAAVVAEIAKHYPGSHINQVFPSVGATRANLGEKDSWINSLVSPTGKVGYVNISTGPISAAGEEKAIVPIKTAIALVRDMGGNSLKYFPMKGLAHEEEYRAVAKACAEEGFALEPTGGIDKENFETIVRIALEANVEQVIPHVYSSIIDKETGNTKVEAVRELLAVVKKLVDQYA”, the “soluble on expression in E. coli” value is “soluble”.

With “MLSIKQLSYALAVSKTLHFRKAADLCHVRQSTLSTGVSELERQLGIKIFERDNKKVLVTPLGREVLDKASNIMLQLEDMAHLDHSCGEP”, the “soluble on expression in E. coli” value is on record as “not soluble”.

Turning to “MLKQTFLLSALLFGLSACQSTDVAKQDTVPLQGSWHIEAVQGQPTVDYSPAQITFDAEGKISGNNSCNNFFGQYSQQGQELKIIPGGSTMKACVDALMQQEHKVMQALPLVAKAKLVEGRLTLLSSDDKAVFVLSQLK”, the “soluble on expression in E. coli” value is “soluble”.

Take “MTQFETERLILRPMTAADHDALADMIFDPQVVAYLRYRRVQSPAAFEQLFTTHFLADTTTVFGIERRRDHQLIGFYEFHGSGATGELTYALSPAAWGHGYVAEAGNCLMHYGFETLNYETIEAHYASANPNSGRVMAKMGMQAAGELHTFTSDKGEVIHVMRYLLTKATWRQLSA”: the “soluble on expression in E. coli” value is recorded as “not soluble”.

On to “MGSDKIHHHHHHMISHKKDQAAGLRELTALEPNAGVRVFAVVGGRTGVGKTSSVINLAVALAKTGKRVLILDENPRHKDVNANLGLSARYDLLHVINQDKTLEQVMTQGPEDVLVLTAMRGIHSLAKLSSADQERLIQCFSELSQTVDVVLIDTAIGRTSRVVPLSLASQQVLIVLSASGKAITDAYALIKLISQEYARRDFLVLVNKVESESMGRDIFENIAGVAQKHLAVKLEWMGCILFDEKLQRSTRLCQPVVEIFPTSASAAGYRQLAEKLMRCAGPWTDNDGVENFMRRLIRTSHLDIADFTV”, for which the “soluble on expression in E. coli” value was “not soluble”.

With “MAHHHHHHMHFSQYPLRLTDLERQKLQLIVAALKVSEYTDDVDDFMRPYGKEGRMEAAMREFIDIVVGLAIASDAIPRSVKNSFLAGEVKVATVVPLLEDLFEIMRRHKRLNPFSHRGEFGKLMMMLQDVQKRSLQRALEIQSTLVIPVRTVEAALSSIYCETLVDDEAVRTDYLKRTGAEKQAGMQSLIERYGKGDEHKKEVIEHCLRSIDDVYSFIQSNTRPLRTLRRWLSRDFEPLPSDDVYSISIRHGRSGACFTHSHATHCQYVTESLLLWENVQKNILNLWEAAEDDMLVEGQGQYVVANTGQGFHRMCSAPKSYGVMSRLVRDTEQRMGGWVGIKVIHLGDRDVPNPLVFIDKYTVIPRLVKPVVQTLHALRYVLHEEDEEEEGQPQVAHEYDNYPGLRNLLRSKYHSYSELMMMILSDFFKHAFDGSGDDGGSCIDGRLTSAWNWCHQLHKKKYYDAFVLTGFAGFD”, the “soluble on expression in E. coli” value is “not soluble”.

With “MKINNLVDLHCHILPAIDDGSPSLEASLELARQAVADGIRYILATPHHMDRHYLNHAGDVVAAVEAFQAELDVNDIPLTIFPGQEVHLNGQLMEKVDDLLSIDTGRHYLLLELPHEMVPSYLDEMIFQLSCEGITPVIAHPERNAQIIAEPQRLYKLAEDGVLAQVTATSLVGTFGEQVQRTAKEFVKCGLVQVVASDAHTLKNRGFAMTKAYQVLNEMDSKYPERFATNARDLLNGEQIEMGQIEIPRKQRKHWLF”, the “soluble on expression in E. coli” value is “not soluble”.

For the sequence “MRREILVAAAILLDSRGRVLLVGNDWGRRGRVRYTLPGGTVEPGETAVEALVREVREETGLRVRSVEHLAYVIQVEDRRKNERTLAMAFRATYEGLLNPRDPDGHIVEARFFTLEEVEERLKGHLPLLEPLRAYLRGERGRFYAYAGWHAPGVVV”, the “soluble on expression in E. coli” value is recorded as “soluble”.

As for “MSLRDYAEIAASGILRAVTEYNSISFYADGDTVSGFHYELLHAFAHSKGLKPEITPEMSFSKRLEDVQKGTYDILANSTVVTTEYKDSLLFTRPIILNKQVLVQRKPEKENDSLYIHSQLELARKTLHLVKNSPAILRIHNLSNEIGDTIYIKEVEKYGQEQLLAMVAHGDIDYAVCDESIAKASINDFPQLDIETAISFSQFYSWGVSKHSPILLDSLNSWLNDYVKTPAFKLLRKKYYNNEGHHHHHH”, the “soluble on expression in E. coli” value is recorded as “soluble”.

As to “MSLGPPSIARTVTPNASIPKTPEDISILPVNDEPGYLQDSKTEQNYPELADAVKSQTSQTCSEEHKYVIMIDAGSTGSRVHIYKFDVCTSPPTLLDEKFDMLEPGLSSFDTDSVGAANSLDPLLKVAMNYVPIKARSCTPVAVKATAGLRLLGDAKSSKILSAVRDHLEKDYPFPVVEGDGVSIMGGDEEGVFAWITTNYLLGNIGANGPKLPTAAVFDLGGGSTQIVFEPTFPINEKMVDGEHKFDLKFGDENYTLYQFSHLGYGLKEGRNKVNSVLVENALKDGKILKGDNTKTHQLSSPCLPPKVNATNEKVTLESKETYTIDFIGPDEPSGAQCRFLTDEILNKDAQCQSPPCSFNGVHQPSLVRTFKESNDIYIFSYFYDRTRPLGMPLSFTLNELNDLARIVCKGEETWNSVFSGIAGSLDELESDSHFCLDLSFQVSLLHTGYDIPLQRELRTGKKIANKEIGWCLGASLPLLKADNWKCKIQSAEGHHHHHH”, the “soluble on expression in E. coli” value was “soluble”.

“SNAMVQAQTRDQIVAAADELFYRQGFAQTSFVDISAAVGISRGNFYYHFKTKDEILAEVIRLRLARTAQMLADWQGTGDSPRARIASFIDLMIMNRAKITRYGCPVGSLCTELSKLDHAAQGQANGLFTLFRDWLQRQFAEAGCTTEAPALAMHLLARSQGAATLAQSFHDEGFLRSEVADMHRWLDNTLPMTT”: the “soluble on expression in E. coli” value is listed as “soluble”.

As for “GPGSMQSASSRVPRKPAAASNLGKPSSSGRFTKPNRPQPTSSFSKTAQPDMTGRYGTSTALVASTAASHFTAGARGQSTPFVGLADRTGQEGSVFGLRAPQNDATGAAAHTKTRQAARTKVVDDASTPVVVVGPERDSVPFRLCCEALAEGCVQTYMHLFELAHRDPVCVDTLSRKFFNVPDDRLAWVQQQLSAVEVLRRQSEFEQVFTHCEQLANYFEKEGDYAEAAWYHEMVLHYMMESLDRTLEQRARHVYATFQERQGHLEEAAALYDAMYRLAVALRDEATLQDASCCLVRVHQALGETLKFSDPAAAARHYATAAEAAVRSKNVVDEGSAYSALGDVSEARGDLPLALKYQRSCRAVAQQNDLKPQECRATLRVADLEERLGLKLEASTTLHEALQLAKELGAPRQLCIATMQLGEAYRSRNQEGEALQCFDESFAAAVEAGDQELIDTVRIAMGFARGDYYLTHAYGGKGYLHLVYTDIRAQLAWMSGGTL”, the “soluble on expression in E. coli” value was “not soluble”.

As to “MRRVTTLLVMMLTVLSACQASPKASPTKPGNAMSNNHPQNPYYSRTDTTRLDLPNEVWKKVLSPELYAVARLAETERAFTGKYWNYEGLGTYYCAACGNTLFRSDAKFASTCGWPSFFETVRPGSVAYREDTSFGMVRTEVLCGRCGAHLGHVFDDGPPPTGKRFCMNSICLDFEPDQPETAKPQ”, the “soluble on expression in E. coli” value was “soluble”.

As for “MQEAVLQLIEVQLAQEEVTESPLGGDENAQLHASGYYALFVDTVPDDVKRLYTEAATSDFAALAQTAHRLKGVFAMLNLVPGKQLCETLEHLIREKDVPGIEKYISDIDSYVKSLL”, the “soluble on expression in E. coli” value was “soluble”.

With “VTTMHDVARAAGVSQAAVSYAYNQPHKLSAARRAHIFQVAAELGYAGPNPAGRNLRTGQVGALGLMITDSLRYAFDDPATSQLLKGISEVGELAEVALTLLPCPLESTRVAEGSGVLVRGAVDGFLAYAMPDGHPGMQTAMSRRLPIVVIDGPNPGGLPRVGIRDRQAAKEIAEHVLSLGHRRVGFLVDRLVPDGKGGPVDAARTRAARDHVMKERLAGYASACRKYTVPWSSTVVVEAGGFDYELSRTAVETLLDAGPVTAVIAASDLLALAAIDVAHERGLRVPQDLSVVGFDDIPAARAAGLTTVRQPLVDKGREAAQLLLDIIGGGAGREITLPTELVVRESAGPVTADR”, the “soluble on expression in E. coli” value is on record as “not soluble”.

Consider “AHHHHHHGSRVVKKIGLIGGMTPESTCYYYRKYIEISRKKFRKYEYPELLIYSINFRDFFMNPEGWEGRKRILINAAKALERAGAELIALTANTPHIVFDDIQKEISVPMVSIIDAVAEEILSHGLKKVLLLETKTTMSSGFYVNALKNKGLEVVVPNEEEQEELNRIIFEELAFENLKSKRWIIDLIERYAKEEGVEGVILGCTELPLAVKRGDVSIEVFDSAEIHIKKLIEVASQSI”, for which the “soluble on expression in E. coli” value was “not soluble”.

Regarding “MYYHALKLSRLAMLTLAGVAVSASAIAADSAPTSQIGPTAEAYIVSHPDKVGEVVATYLAEHPEFLVAASETLHQRQQIAQQQAYVQLALQYRAELLSSSSPSVGPNEAKAAVVMFFDYQCSWCSKMAPVVENLIKANPDTRFIFKEFPIFSSRWPVSGLAARVGEQVWLTQGGAKYLDWHNALYATGKVEGALTEHDVYTLAQHYLTPTQLAAVKEAQSSGAVHDALLTNQALAQHMDFSGTPAFVVMPQTQDGDVKRVTVIPGSTTQDMLQMAIQKAKG”, the “soluble on expression in E. coli” value is “not soluble”.

Take “MGTEVSTSPTSLIDQTVVPGDVVLDLSNMTNQTIKLGSGLRQDNEVISVMRAGKLRYSKPNKYWVESSHKRYVPRPEDHVLGIVVDCKGENYWIDIKGPQLALLPVLAFEGANRRNYPKFEVSTLLYTRVVKTNTGMNPELSCVDESGKAAGFGPLKDGFMFETSTGLSRMLLSSPTCPVLEALGKKLSFETAFGLNGRCWVHAAAPRIVIIVANALMNSETLSGTQQRIMVEKLLEKISD”: the “soluble on expression in E. coli” value was “soluble”.

Turning to “MNDVSKASLPKAIFLMGPTASGKTALAIELRKVLPVELISVDSALIYRGMDIGTAKPNADELKAAPHRLLDIRDPSQAYSAADFRRDALAQMAEITAAGRIPLLVGGTMLYFKALLEGLSPLPSADPEVRSRIEQQAAELGWEALHQQLQEIDPVAAARIHPNDPQRLSRALEVFFISGKTLTELTQTSGDALPYQVHQFAIAPASRELLHQRIELRFHQMLASGFEAEVRALFARGDLHTDLPSIRCVGYRQMWSYIEGEISYDEMVYRGVCATRQLAKRQMTWLRGWEGVRWLDSENPDRARKEVLQVVGAIADMAGDPLEHHHHHH”, the “soluble on expression in E. coli” value was “not soluble”.

For “MITSPFERELKLLNEGELGIVQQLVESSNIGFIVDLELDGDYGWAVYKPELGEQPLWDFPPGLYKRERAAFVISEFLGWNIVPPTVIMHDAPAGVGSVQWFIENNGEHYFPLFDTRADLHPQFVRMAVFDLLCNNTDRKAGHVLLDGDHIWGIDHGLCFSVEPKLRTVIWDFAGCTIPDDLVTDVEQLLEDVPEELHQLLHPAEIDALQRRASRISRLPFLPQAKSHRQFPWPLVLEHHHHHH”, the “soluble on expression in E. coli” value was “soluble”.
